Results on one sequence are retold here after PMC7987339.

The data set has as its target Hfq (Escherichia coli) (UniProt P0A6X3). As to the kind of experiment: competition. The conditions noted are these: 10 nM (so in the source) Tris-HCl pH 8.0, 1 mM DTT, 1 mM MgCl2, 20 mM KCl, 10 mM Na phosphate pH 8.0, 12.5 ug/mL yeast tRNA; 15 min at 37 C; native 5% PAGE in 1X TBE ….

Sequence of Hfq (Escherichia coli) (P0A6X3 whole entry): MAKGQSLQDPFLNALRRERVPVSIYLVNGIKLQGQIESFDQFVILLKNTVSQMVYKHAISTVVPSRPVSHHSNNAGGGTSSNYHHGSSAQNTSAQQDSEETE

Turning to “GGACACCGUCGCUUAAAGUGACGGCAUAAUAAUAAAAAAAUGAAAUUCCUCUUUGACGGGCCAAUAGCGAUAUUGGCCAUUUUUUU [ChiX sRNA]”, the binding entry is on record as “binds”.
